Source: PMC9223271 (Nature Communications, 2022)

B1: ZCB11 (human IgG1 monoclonal antibody) (antibody, V domains shown)
VH: EVQLVQSGPEVKKPGTSVKVACKASGFTFITPVSMQWVRQARGQRLEWLGWIVLASGNTDYAQKFQERVTIIRDMSTSTAYMELSRLRTEDTAVYYCAAPSCSRTICSDGFDIWGQGTMVTVSS
VL: EIVLTQSPGTLSLSPGERATLSCRASQSVSSSYLAWFQQKPGQAPRLLIFAASSRAIGIPARFSGSGSGTDFTLTISRLEPEDFAVYYCQQYSSSPWTFGQGTKVEIK
notes: also called bNAb ZCB11
B2: S2E12 (antibody, V domains shown)
VH: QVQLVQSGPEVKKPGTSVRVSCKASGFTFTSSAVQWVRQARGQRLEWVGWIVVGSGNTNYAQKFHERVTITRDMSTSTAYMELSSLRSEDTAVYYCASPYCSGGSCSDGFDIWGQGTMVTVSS
VL: DIVLTQTPGTLSLSPGERATLSCRASQSVSSSYLAWYQQKPGQAPRLLIYGASSRATGIPDRFSGSGSGTDFTLTISRLEPEDFAVYYCQQYVGLTGWTFGQGTKVEIK
notes: source: generated by the authors

Molecular target: T1, SARS-CoV-2 RBD protein (recombinant, WT) (SARS-CoV-2 wild type (Wuhan-Hu-1 …, UniProt P0DTC2))
T1 construct: also called WT RBD
Experiment: SPR
Conditions: both partners purified

Row | Binder | Kd [nM] | binding result
1 | B1 | 0.0575 | –
2 | B2 | – | binds
